This passage reports Relative fluorescence intensity (bonding of monodansyl cadaverine with dimethylated casein) (relative fluorescence intensity) and relative activity (fluorescence intensity due to bonding of monodansylcadaverine with dimethylated casein) (units/mg protein) results from patent US5607849.

Test [1] concerns the target dimethylated casein.
Test [2] addresses dimethylated casein. The source holds these as a separate data set.
Test [3] addresses dimethylated casein. This is another data set of the same source.

Read-outs that look alike come from different tables or passages of the source.

Consider “Pagrus major transglutaminase, recombinant (expressed from the cDNA of pSLTG5 by plasmids pIL6TG1 and pTTG2-22 in E. coli HB101 and pYSTG1 in Saccharomyces cerevisiae INVSC2) (enzyme)”, for which the Relative fluorescence intensity (bonding of monodansyl cadaverine with dimethylated casein) (relative fluorescence intensity) in test [1] was determined as 910.

“Pagrus major liver-derived transglutaminase, natural enzyme purified from liver (heparin fraction)”: the relative activity (fluorescence intensity due to bonding of monodansylcadaverine with dimethylated casein) (units/mg protein) in test [2] was found to be 807.

In turn, “Alaska pollack (Theragra chalcogramma) liver-derived transglutaminase, natural enzyme purified from liver (S-Sepharose fraction)” registered a relative activity (fluorescence intensity due to bonding of monodansylcadaverine with dimethylated casein) (units/mg protein) in test [3] of 591.
